{
  "source": "patent US9145555B2",
  "about": "“Integrated—ligand-responsive microRNAs” (California Institute of Technology, priority 2009, dated 2015)",
  "molecules": {"B1": {"name": "La2: SEQ ID NO. 34; La-targeting miRNA with the theophylline aptamer in the basal segments (nucleic acid)", "chain": "TCTAGAACGGGTCCTGATACCAGCGTGAGCGCTGGAAATCAGTGAAGATAAAATAGTGAAGCCACAGATGTATTTTATCTTCACTGATTTCCATCGCCTACGCCCTTGGCAGCAGGGCCC", "modifications": "expressed or natural sequence", "notes": "34; La-targeting miRNA with the theophylline aptamer in the basal segments"}, "B2": {"name": "m2: SEQ ID NO. 20; GFP-targeting control miRNA with varied bulge size, no aptamer (nucleic acid)", "chain": "TCTAGAACGGGAAACACAGTGAGCGAGCACAAGCTGGAGTACAACTATAGTGAAGCCACAGATGTATAGTTGTACTCCAGCTTGTGCCTGCCTACTGCCTCGGGCCC"}, "B3": {"name": "th2: SEQ ID NO. 25; th1 altered to target a different location in the GFP transcript (nucleic acid)", "chain": "TCTAGAACGGGTCCTGATACCAGCGTGAGCGCCAAGAAGATGGTGCGCTCCTGGAGTGAAGCCACAGATGTCCAGGAGCGCACCATCTTCTTGTCGCCTACGCCCTTGGCAGCAGGGCCC", "modifications": "expressed or natural sequence", "notes": "25; th1 altered to target a different location in the GFP transcript"}, "B4": {"name": "tc1: SEQ ID NO. 30; GFP-targeting miRNA harboring the tetracycline aptamer (nucleic acid)", "chain": "TCTAGAACGGGTCCTAAAACATACCGTGAGCGAGCACAAGCTGGAGTACAACTATAGTGAAGCCACAGATGTATAGTTGTACTCCAGCTTGTGCCTGCCTACGGAGAGGTGAAGAATACGACCACCTAGGGCCC", "modifications": "miRNA", "notes": "30; GFP-targeting miRNA harboring the tetracycline aptamer"}, "B5": {"name": "xa1: SEQ ID NO. 31; GFP-targeting miRNA with the binding core of the xanthine aptamer (nucleic acid)", "chain": "TCTAGAACGGGTCCGTGTATTACCTGAGCGAGCACAAGCTGGAGTACAACTATAGTGAAGCCACAGATGTATAGTTGTACTCCAGCTTGTGCCCGCCTAGGTCGACGGGCCC", "modifications": "expressed or natural sequence"}, "B6": {"name": "m1: SEQ ID NO. 19; GFP-targeting control miRNA with a large bulge in the basal segments, no aptamer (nucleic acid)", "chain": "TCTAGAACGGGAAGTAATTACAGTGAGCGAGCACAAGCTGGAGTACAACTATAGTGAAGCCACAGATGTATAGTTGTACTCCAGCTTGTGCCTGCCTACTGCCACATAGGGCCC"}, "B7": {"name": "La1: SEQ ID NO. 33; La-targeting miRNA with basal segments similar to miR-30a, no aptamer (nucleic acid)", "chain": "TCTAGAGTTTGACAGTGAGCGCTGGAAATCAGTGAAGATAAAATAGTGAAGCCACAGATGTATTTTATCTTCACTGATTTCCATTGCCTACTGCCTCGGACTGAATTCATAGGGCCC", "modifications": "expressed or natural sequence", "notes": "33; La-targeting miRNA with basal segments similar to miR-30a, no aptamer"}, "B8": {"name": "xa2: SEQ ID NO. 32; GFP-targeting miRNA with xanthine aptamer binding core and loop, inverted (nucleic acid)", "chain": "TCTAGAACGGGTCCGAGGTCGACGTGAGCGAGCACAAGCTGGAGTACAACTATAGTGAAGCCACAGATGTATAGTTGTACTCCAGCTTGTGCCCGCCTACGTGTATTACCCAGGGCCC", "modifications": "expressed or natural sequence"}, "B9": {"name": "wt: SEQ ID NO. 18; GFP-targeting miRNA with basal segments similar to the natural miRNA miR-30a, control (nucleic acid)", "chain": "TCTAGAGTTTGACAGTGAGCGAGCACAAGCTGGAGTACAACTATAGTGAAGCCACAGATGTATAGTTGTACTCCAGCTTGTGCCTGCCTACTGCCTCGGACTGAATTCATAGGGCC"}, "B10": {"name": "th1′: SEQ ID NO. 24; theophylline-responsive non-targeting miRNA, scrambled mature miRNA sequence (nucleic acid)", "chain": "TCTAGAACGGGTCCTGATACCAGCGTGAGCGAGCACAAGCTATCAACATGAGGTAGTGAAGCCACAGATGTACCTCATGTTGATAGCTTGTGCCCGCCTACGCCCTTGGCAGCAGGGCCC"}},
  "key": {"[1]": {"system": "transcript encoding the green fluorescent protein (GFP) in HEK 293 cells stably expressing GFP", "experiment": "Cell culture assay for miRNA activity (GFP silencing, transient transfection, flow cytometry)", "assay_type": "cell-based, human", "details": "for response of GFP levels to tetracycline: 100 μM tetracycline; for GFP silencing: single copy, absence of ligand; for response of GFP levels to theophylline: transient transfection with varying theophylline concentrations; for response of GFP levels to hypoxanthine: 5 mM hypoxanthine", "from_the_text": "To examine the relationship between bulge size in the basal segments and gene silencing, we developed a general cell culture assay for miRNA activity (FIG. 1D). miRNAs designed to target a transcript encoding the green fluorescent protein (GFP) were inserted into the 3′ untranslated region (UTR) of a constitutively-expressed transcript encoding the fluorescent protein DsRed-Express. Plasmid DNA encoding the DsRed-Express construct was transfected into HEK 293 cells stably expressing GFP. The level of miRNA-mediated gene silencing was determined by flow cytometry analysis, where DsRed-Express levels were used to distinguish between transfected and untransfected cells. Using the cell culture assay, miRNAs with the same bulges as in the in vitro experiments were tested for silencing efficiency. […] Therefore, proper Drosha processing and gene silencing correlate with the size of the bulge in the miRNA basal segments.\n293 and Flp-In-293 cells were maintained in DMEM supplemented with 10% FBS at 37° C. in a 5% CO2—humidified incubator. Transient transfections were conducted with Fugene 6 (Roche) according to the manufacturer's instructions one day after seeding. Immediately prior to transfection, the media was supplemented with the appropriate ligand at the specified concentration. Ligand concentrations were selected to maximize the regulatory response without severely compromising cell viability over the course of the transient assays. The media was replaced two days post-transfection. Three days post-transfection, the cells were trypsinized and subjected to flow cytometry analysis on a Cell Lab Quanta SC MPL (Beckman Coulter) and the resulting data was analyzed using the Flowjo software (Tree Star). Cells were initially gated for viability by electronic volume and side scatter. GFP and DsRed fluorescence of viable cells were measured through a 525 nm and […] band pass filter, respectively, after excitation with a 488 nm laser. Moderate to high DsRed levels served as a transfection control to gate between transfected and untransfected cells. Transfected cells could be distinguished from untransfected cells with this method even when four miRNAs were present in the 3′ UTR of the DsRed-Express encoding transcript (data not shown). GFP levels were calculated as the median fluorescence of the transfected population divided by that of the untransfected population (Beisel et al., 2008). This normalization approach corrected for the bias from pleiotropic effects associated with each small molecule. All ratios were normalized such that the value for DsRed-Express lacking a miRNA under the same conditions was set to 100%."}, "[2]": {"system": "xanthine aptamer", "details": "cited from earlier work"}, "[3]": {"system": "endogenous La gene", "experiment": "La transcript levels by qRT-PCR in stable 293-Flp-In cell lines", "assay_type": "cell-based, human", "details": "four copies; for silencing of La transcript: 112 nt spacer, stable cell lines", "from_the_text": "Most of the synthetic ligand-responsive RNA-based regulatory systems are encoded in the target transcript, providing regulation in cis (Suess and Weigand, 2008). However, the regulation of endogenous genes through cis regulatory strategies is currently limiting due to the lack of directed recombination technologies. To test whether ligand-responsive miRNAs provide a trans regulatory strategy for the effective regulation of endogenous genes, we incorporated a mature miRNA sequence against the endogenous La gene into wt (La1) and th1 (La2) (FIG. 9). Four copies of each miRNA separated by the longest spacer sequence were cloned into the 3′ UTR of the transcript encoding DsRed-Express, and the resulting constructs were stably integrated into a single site in 293-Flp-In cells.\n(§1) Stable transfection of 293-Flp-In cell lines was performed using the Flp-In recombinase system (Invitrogen) according to the manufacturer's instructions to generate isogenic stable cell lines. Integrants were selected using 200 μg/ml hygromycin B (Invitrogen), whereas stable cell lines were maintained in 50 μg/ml hygromycin B. The procedure described above for the fluorescence expression analysis of transiently transfected cell populations was used to analyze the stable cell lines with notable exceptions. Normalization of flow cytometry data to untransfected cells was not performed as all cells express the integrated construct, and all data was normalized to cells lacking a miRNA and grown in the absence of theophylline. Normalization to cells grown under the same conditions was not performed since theophylline differentially affected the two negative controls: no miRNA and a self-targeting miRNA lacking the theophylline aptamer.\nTranscript levels were measured by qRT-PCR under either transient or stable transfection conditions. […] Samples were prepared in quadruplicate using the iQ SYBR green supermix and data were analyzed using the iCycler iQ software. […] The reported sample error was calculated using the following expression: […]"}, "[4]": {"system": "transcript encoding DsRed-Express", "experiment": "DsRed-Express levels in stable cell lines with La-targeting miRNAs (flow cytometry)", "assay_type": "cell-based, human", "details": "four copies; for response of DsRed levels to theophylline: 1.5 mM theophylline; for DsRed-Express down-regulation in cis: stable cell lines", "from_the_text": "To assess the capacity for ligand-responsive miRNAs to regulate gene expression in cis, we measured expression levels for the transcripts harboring the ligand-responsive miRNAs targeting GFP and La. DsRed-Express levels were quantified by flow cytometry under similar conditions as the trans-targeted gene silencing experiments. […] Transcript analysis confirmed that the predominant regulatory mechanism of ligand-responsive miRNAs in cis is mRNA destabilization (FIG. 10).\nas §1"}},
  "data": [
    {"molecule": "Cn1c(=O)c2c(ncn2C)n(C)c1=O", "note": "[caffeine, reference compound]", "values": [
      {"measurement": "response of GFP silencing to caffeine", "setting": "[1]; 1 mM caffeine, miRNAs th1 and wt", "value": "insensitive"}
    ]},
    {"molecule": "O=c1[nH]cnc2nc[nH]c12", "note": "[Hypoxanthine]", "values": [
      {"measurement": "affinity for the xanthine aptamer relative to xanthine", "setting": "[2]", "value": "comparable affinity"}
    ]},
    {"molecule": "B1", "values": [
      {"measurement": "response of La transcript levels to theophylline", "setting": "[3]; 1.5 mM theophylline for over one week", "value": "theophylline-dependent increase in La transcript levels"},
      {"measurement": "silencing of La transcript", "setting": "[3]", "value": "relatively strong silencing"},
      {"measurement": "response of DsRed levels to theophylline", "setting": "[4]", "value": "increase in DsRed levels in the presence of theophylline"},
      {"measurement": "DsRed-Express down-regulation in cis", "setting": "[4]", "value": "substantial DsRed-Express down-regulation"}
    ]},
    {"molecule": "B2", "values": [
      {"measurement": "response of GFP levels to tetracycline", "setting": "[1]", "value": "negligible tetracycline dependence"}
    ]},
    {"molecule": "B3", "values": [
      {"measurement": "GFP silencing", "setting": "[1]", "value": "preserved silencing"},
      {"measurement": "response of GFP levels to theophylline", "setting": "[1]", "value": "preserved silencing and the theophylline response"}
    ]},
    {"molecule": "B4", "values": [
      {"measurement": "response of GFP levels to tetracycline", "setting": "[1]", "value": "tetracycline-dependent increase in GFP levels"},
      {"measurement": "GFP silencing", "setting": "[1]", "value": "down-regulated GFP"}
    ]},
    {"molecule": "B5", "values": [
      {"measurement": "GFP silencing", "setting": "[1]", "value": "completely abolished silencing"}
    ]},
    {"molecule": "B6", "values": [
      {"measurement": "response of GFP levels to hypoxanthine", "setting": "[1]", "value": "no effect"}
    ]},
    {"molecule": "B7", "values": [
      {"measurement": "silencing of La transcript", "setting": "[3]", "value": "relatively strong silencing"},
      {"measurement": "response of DsRed levels to theophylline", "setting": "[4]", "value": "not observed"},
      {"measurement": "DsRed-Express down-regulation in cis", "setting": "[4]", "value": "substantial DsRed-Express down-regulation"}
    ]},
    {"molecule": "B8", "values": [
      {"measurement": "response of GFP levels to hypoxanthine", "setting": "[1]", "value": "hypoxanthine-dependent increase in GFP levels"},
      {"measurement": "GFP silencing", "setting": "[1]", "value": "substantial GFP silencing"}
    ]},
    {"molecule": "B9", "values": [
      {"measurement": "GFP silencing", "setting": "[1]", "value": "silence GFP with comparable strength"},
      {"measurement": "response of GFP levels to theophylline", "setting": "[1]", "value": "insensitive to theophylline"}
    ]},
    {"molecule": "B10", "values": [
      {"measurement": "GFP silencing", "setting": "[1]", "value": "abolished silencing"},
      {"measurement": "GFP silencing versus miRNA copy number", "setting": "[1]; up to four copies separated by 112 nt spacer", "value": "no effect on GFP levels"}
    ]}
  ]
}
